Experimental findings from patent US20250237662A1 are described below.

Broadly, the Kd is the concentration at which binding is half-saturated.

The target of assay [1] is humanized development candidate monoclonal antibody IgG4 (hIgG4). Put plainly: Gyrolab, capture reagent, hIgG4 1.6 ng/ml, against the blank.
Assay [2] shares this target. In words: Gyrolab, capture reagent, hIgG4 40 ng/ml.
Assay [3] has the same target. Put plainly: Gyrolab, capture reagent, hIgG4 8 ng/ml, against the blank.
For assay [4] the target is unchanged. In words: Gyrolab, capture reagent, hIgG4 200 ng/ml.
The target is the same in assay [5]. In words: Gyrolab, capture reagent, hIgG4 1.6 ng/ml.
Assay [6] shares this target. In words: Gyrolab, capture reagent, hIgG4 8 ng/ml.
Assay [7] has the same target. Put plainly: Gyrolab, capture reagent, hIgG4 0.32 ng/ml.
The target is the same in assay [8]. In words: Gyrolab, capture reagent, hIgG4 1000 ng/ml, against the blank.
The target is the same in assay [9]. Put plainly: Gyrolab, capture reagent, hIgG4 40 ng/ml, against the blank.
Assay [10] has the same target. Put plainly: Gyrolab, capture reagent, hIgG4 5000 ng/ml, against the blank.
Assay [11] has the same target. Put plainly: Gyrolab, capture reagent, hIgG4 0.32 ng/ml, against the blank.
Assay [12] has the same target. Put plainly: Gyrolab, capture reagent, hIgG4 5000 ng/ml.
The target is the same in assay [13]. In words: Gyrolab, capture reagent, hIgG4 200 ng/ml, against the blank.
For assay [14] the target is unchanged. In words: Gyrolab, capture reagent, hIgG4 1000 ng/ml.
The target of assay [15] is drug: a monoclonal antibody of human IgG4 isotype (PandA assay). Put plainly: PandA assay, mAb 1 ug/ml in monkey plasma.
Assay [16] has the same target. Put plainly: PandA assay, signal to noise against the negative control.
Assay [17] shares this target. Put plainly: PandA assay, mAb 0.75 ug/ml in monkey plasma.
Assay [18] has the same target. In words: PandA assay (PEG precipitation, acid dissociation, MSD plate, sulfo-TAG-drug), mAb 5 ug/ml in monkey plasma.
Assay [19] has the same target. Put plainly: PandA assay, mAb 0.5 ug/ml in monkey plasma.
Assay [20] addresses humanized development candidate monoclonal antibody IgG4 (hIgG4). In words: Gyrolab, mAb as capture, hIgG4 40 ng/ml.
For assay [21] the target is unchanged. Put plainly: Gyrolab, mAb as capture, hIgG4 1000 ng/ml.
Assay [22] shares this target. In words: Gyrolab, mAb as capture, hIgG4 5000 ng/ml.
For assay [23] the target is unchanged. In words: SPR (Biacore T200), under the same conditions as the rabbit clones, antigen 80-0 nM, 1:1 fit. On the technique in general: Surface plasmon resonance follows binding to a sensor surface in real time, without labels.
Assay [24] deals with humanized therapeutic monoclonal antibody IgG1 (hIgG1). Described as above.
Assay [25] deals with humanized development candidate monoclonal antibody IgG4 (hIgG4). In words: Gyrolab, mAb as capture, hIgG4 200 ng/ml.
For assay [26] the target is unchanged. In words: Gyrolab, mAb as capture, hIgG4 1.6 ng/ml.
Assay [27] has the same target. Put plainly: Gyrolab, mAb as capture, hIgG4 0.32 ng/ml.
Assay [28] has the same target. Put plainly: Gyrolab, mAb as capture, hIgG4 8 ng/ml.

For “Gyrolab generic PK assay capture reagent”, the S/B in assay [1] worked out at 1.2; in assay [3] it was 2.1; in [8], 59; in assay [9], 5.7; in [10] it was 103; in assay [11], 1. This substance had a S/B in assay [13] of 20.8. Also, the Av. Resp. worked out at 26.1 in assay [2]; 94.1 in [4]; 5.3 in assay [5]; 9.3 in assay [6]; 4.6 in assay [7]; 468 in assay [12]. Moreover, the Av. Resp. in [14] came to 267.

Take “mouse anti-Fc monoclonal antibody clone JDC-10 (Southern Biotech, Cat. No. 9040-01)”: the ECL Signal was determined as 182 in assay [15], 148 in [17], 756 in assay [18] and 130 in assay [19]. Further, in assay [16], the S/N came to 1.37.

Take “mouse anti-human IgG monoclonal antibody MCA5748G (Bio-Rad)”: the Av. Resp. in assay [20] was determined as 33.8; in [21], 214; in assay [22], 283; in assay [25] it was 86.7; in assay [26] it was 14.2; in assay [27], 13.6. Further, the Av. Resp. in assay [28] worked out at 18.4. The Kd amounted to 1.57 nM in assay [23] and 1.82 nM in assay [24].
